According to US20240376221A1:

Experiments:
[1] = biological target: recombinant human OX40 (Acro Biosystems, cat. no. OXO-H5224) (human) (UniProt P43489); assay: BLI cross-block; competitor (immobilized 1st Ab): IgG1-CD134-11D4
[2] = biological target: recombinant human OX40 (Acro Biosystems, cat. no. OXO-H5224) (human) (UniProt P43489); assay: BLI cross-block; competitor (immobilized 1st Ab): IgG1-CD134-RG7888
[3] = biological target: human OX40 with mouse CRD3 (human with mouse CRD3) (UniProt P43489); assay: flow cytometry, ExpiCHO-S cells with human OX40 carrying mouse CRD3
Sequence of human OX40 with mouse CRD3 (human with mouse CRD3) (P43489 other isoform, or with tags, fused parts or gaps limits assumed): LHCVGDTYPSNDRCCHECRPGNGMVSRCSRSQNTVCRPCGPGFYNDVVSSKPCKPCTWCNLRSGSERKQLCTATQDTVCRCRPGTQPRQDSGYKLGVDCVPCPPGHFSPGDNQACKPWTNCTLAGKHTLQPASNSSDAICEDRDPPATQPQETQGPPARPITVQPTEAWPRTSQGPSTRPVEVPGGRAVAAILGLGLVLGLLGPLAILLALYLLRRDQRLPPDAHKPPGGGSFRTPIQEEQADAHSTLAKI

[4] = biological target: recombinant human OX40 (Acro Biosystems, cat. no. OXO-H5224) (human) (UniProt P43489); assay: BLI cross-block; competitor (immobilized 1st Ab): IgG1-CD134-GBR830
[5] = biological target: human OX40, cell surface-expressed (human) (UniProt P43489); assay: flow cytometry, ExpiCHO-S cells with human OX40
Sequence of human OX40, cell surface-expressed (human) (P43489 29-277): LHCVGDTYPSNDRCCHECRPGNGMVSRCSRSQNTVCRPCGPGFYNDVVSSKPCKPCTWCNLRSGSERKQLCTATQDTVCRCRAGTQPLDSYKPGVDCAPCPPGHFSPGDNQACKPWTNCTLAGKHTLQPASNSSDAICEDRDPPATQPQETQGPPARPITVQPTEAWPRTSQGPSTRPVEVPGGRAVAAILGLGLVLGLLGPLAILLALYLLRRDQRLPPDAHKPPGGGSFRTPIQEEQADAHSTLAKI

[6] = biological target: human OX40 with mouse CRD4 (human with mouse CRD4) (UniProt P43489); assay: flow cytometry, ExpiCHO-S cells with human OX40 carrying mouse CRD4
Sequence of human OX40 with mouse CRD4 (human with mouse CRD4) (P43489 other isoform, or with tags, fused parts or gaps limits assumed): as the sequence (P43489 29-277) above, with D109N, A122S, H125Q, L127R, Q128H, N132D, S134L, I137V counted along it

[7] = biological target: recombinant human OX40 (Acro Biosystems, cat. no. OXO-H5224) (human) (UniProt P43489); assay: BLI cross-block; competitor (immobilized 1st Ab): IgG1-CD134-h3C8
[8] = biological target: recombinant human OX40 (Acro Biosystems, cat. no. OXO-H5224) (human) (UniProt P43489); assay: BLI cross-block; competitor (immobilized 1st Ab): IgG1-CD134-MEDI0562
[9] = biological target: recombinant human OX40 (Acro Biosystems, cat. no. OXO-H5224) (human) (UniProt P43489); assay: BLI cross-block; competitor (immobilized 1st Ab): IgG1-CD134-Hu106
[10] = biological target: recombinant human OX40 (Acro Biosystems, cat. no. OXO-H5224) (human) (UniProt P43489); assay: BLI, Ab on AHC sensor, OX40 analyte
[11] = biological target: human OX40 with mouse CRD1 (human with mouse CRD1) (UniProt P43489); assay: flow cytometry, ExpiCHO-S cells with human OX40 carrying mouse CRD1
Sequence of human OX40 with mouse CRD1 (human with mouse CRD1) (P43489 other isoform, or with tags, fused parts or gaps limits assumed): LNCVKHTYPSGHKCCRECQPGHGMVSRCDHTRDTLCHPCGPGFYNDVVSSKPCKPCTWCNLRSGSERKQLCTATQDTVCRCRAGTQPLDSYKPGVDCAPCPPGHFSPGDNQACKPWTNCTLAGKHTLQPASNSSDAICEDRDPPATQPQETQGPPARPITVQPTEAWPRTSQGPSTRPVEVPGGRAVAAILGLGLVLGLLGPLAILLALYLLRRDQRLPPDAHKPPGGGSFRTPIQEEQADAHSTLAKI

[12] = biological target: recombinant human OX40 (Acro Biosystems, cat. no. OXO-H5224) (human) (UniProt P43489); assay: BLI cross-block; competitor (immobilized 1st Ab): IgG1-CD134-A4453
[13] = biological target: cynomolgus monkey OX40, cell surface-expressed (cynomolgus monkey); assay: flow cytometry, HEK293F cells with cynomolgus monkey OX40
Sequence of cynomolgus monkey OX40, cell surface-expressed (cynomolgus monkey) (P43489 other isoform, or with tags, fused parts or gaps limits assumed): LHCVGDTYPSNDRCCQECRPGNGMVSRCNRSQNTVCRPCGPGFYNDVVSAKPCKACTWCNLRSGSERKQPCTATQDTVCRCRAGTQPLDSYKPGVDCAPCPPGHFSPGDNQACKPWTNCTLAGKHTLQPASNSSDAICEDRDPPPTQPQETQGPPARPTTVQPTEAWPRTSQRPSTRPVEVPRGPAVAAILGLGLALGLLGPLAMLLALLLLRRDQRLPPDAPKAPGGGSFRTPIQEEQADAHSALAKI

[14] = biological target: recombinant human OX40 (Acro Biosystems, cat. no. OXO-H5224) (human) (UniProt P43489); assay: BLI cross-block; competitor (immobilized 1st Ab): IgG1-CD134-SF2
[15] = biological target: recombinant human OX40 (Acro Biosystems, cat. no. OXO-H5224) (human) (UniProt P43489); assay: BLI cross-block; competitor (immobilized 1st Ab): IgG1-CD134-ABBV368
[16] = biological target: recombinant human OX40 (Acro Biosystems, cat. no. OXO-H5224) (human) (UniProt P43489); assay: BLI cross-block; competitor (immobilized 1st Ab): IgG1-CD134-INCAGN1949
[17] = biological target: recombinant human OX40 (Acro Biosystems, cat. no. OXO-H5224) (human) (UniProt P43489); assay: BLI cross-block; competitor (immobilized 1st Ab): IgG1-CD134-003-HC6LC2-RR
[18] = biological target: recombinant cynomolgus monkey OX40 (Acro Biosystems, cat. no. OXO-C5220) (cynomolgus monkey); assay: BLI, Ab on AHC sensor, OX40 analyte; * binding observed, less reliable fit
Sequence of recombinant cynomolgus monkey OX40 (Acro Biosystems, cat. no. OXO-C5220) (cynomolgus monkey) (P43489 other isoform, or with tags, fused parts or gaps limits assumed): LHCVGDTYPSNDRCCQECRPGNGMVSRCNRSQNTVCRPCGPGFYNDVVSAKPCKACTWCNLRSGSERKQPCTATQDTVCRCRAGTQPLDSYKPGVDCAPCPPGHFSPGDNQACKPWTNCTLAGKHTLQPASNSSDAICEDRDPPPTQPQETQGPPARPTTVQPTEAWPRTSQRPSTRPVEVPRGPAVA

[19] = biological target: human OX40, cell surface-expressed (human) (UniProt P43489); assay: flow cytometry, HEK293F cells with human OX40
[20] = biological target: recombinant human OX40 (Acro Biosystems, cat. no. OXO-H5224) (human) (UniProt P43489); assay: BLI cross-block; competitor (immobilized 1st Ab): IgG1-CD134-012
[21] = biological target: recombinant human OX40 (Acro Biosystems, cat. no. OXO-H5224) (human) (UniProt P43489); assay: BLI cross-block; competitor (immobilized 1st Ab): IgG1-CD134-49B4-RRE
[22] = biological target: recombinant human OX40 (Acro Biosystems, cat. no. OXO-H5224) (human) (UniProt P43489); assay: BLI cross-block; competitor (immobilized 1st Ab): IgG1-CD134-003
[23] = biological target: recombinant human OX40 (Acro Biosystems, cat. no. OXO-H5224) (human) (UniProt P43489); assay: BLI cross-block; competitor (immobilized 1st Ab): IgG1-CD134-IBI101
[24] = biological target: recombinant human OX40 (Acro Biosystems, cat. no. OXO-H5224) (human) (UniProt P43489); assay: BLI cross-block; competitor (immobilized 1st Ab): IgG1-CD134-007
[25] = biological target: human OX40, cell surface-expressed (human) (UniProt P43489); assay: flow cytometry, activated CD8+ T cells, donor 2
[26] = biological target: human OX40, cell surface-expressed (human) (UniProt P43489); assay: flow cytometry, activated CD4+ T cells, donor 1
[27] = biological target: human OX40, cell surface-expressed (human) (UniProt P43489); assay: flow cytometry, activated CD8+ T cells, mean of 3 donors
[28] = biological target: human OX40, cell surface-expressed (human) (UniProt P43489); assay: flow cytometry, activated CD4+ T cells, mean of 3 donors
[29] = biological target: human OX40, cell surface-expressed (human) (UniProt P43489); assay: flow cytometry, activated CD8+ T cells, donor 3
[30] = biological target: human OX40, cell surface-expressed (human) (UniProt P43489); assay: flow cytometry, activated CD8+ T cells, donor 1
[31] = biological target: human OX40, cell surface-expressed (human) (UniProt P43489); assay: flow cytometry, activated CD4+ T cells, donor 2
[32] = biological target: human OX40, cell surface-expressed (human) (UniProt P43489); assay: flow cytometry, activated CD4+ T cells, donor 3
[33] = biological target: human FcγRIa, cell surface-expressed (human) (UniProt P12314); assay: flow cytometry, ExpiCHO-S cells transfected with human FcγRIa
Sequence of human FcγRIa, cell surface-expressed (human) (P12314 16-374): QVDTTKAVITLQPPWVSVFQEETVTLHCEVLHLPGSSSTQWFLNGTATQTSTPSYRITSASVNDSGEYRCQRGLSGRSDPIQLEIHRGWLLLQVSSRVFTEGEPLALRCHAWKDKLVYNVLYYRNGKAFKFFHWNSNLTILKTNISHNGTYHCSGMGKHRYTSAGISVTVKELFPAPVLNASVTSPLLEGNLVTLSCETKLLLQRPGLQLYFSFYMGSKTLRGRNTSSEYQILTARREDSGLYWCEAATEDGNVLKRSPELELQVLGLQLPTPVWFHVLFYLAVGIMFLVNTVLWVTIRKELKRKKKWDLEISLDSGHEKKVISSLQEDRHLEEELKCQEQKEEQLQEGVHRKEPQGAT

[34] = biological target: His-tagged human recombinant FcγRIa (human) (UniProt P12314); assay: SPR, His-tagged FcγRIa captured on an anti-His chip, antibody injected
Sequence of His-tagged human recombinant FcγRIa (human) (P12314 16-288 limits assumed): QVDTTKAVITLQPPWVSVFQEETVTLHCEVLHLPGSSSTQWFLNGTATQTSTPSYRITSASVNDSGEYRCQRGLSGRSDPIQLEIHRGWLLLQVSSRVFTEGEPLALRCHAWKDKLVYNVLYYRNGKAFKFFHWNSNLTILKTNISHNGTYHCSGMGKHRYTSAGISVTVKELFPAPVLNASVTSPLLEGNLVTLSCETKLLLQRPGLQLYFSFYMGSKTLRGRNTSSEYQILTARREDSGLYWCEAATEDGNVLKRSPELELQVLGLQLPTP

Sequence of IgG1-CD134-IBI101 (antibody) (VH): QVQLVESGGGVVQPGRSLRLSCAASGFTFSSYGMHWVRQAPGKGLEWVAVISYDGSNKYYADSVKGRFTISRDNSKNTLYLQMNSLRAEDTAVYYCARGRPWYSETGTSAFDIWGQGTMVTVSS
Sequence of IgG1-CD134-IBI101 (antibody) (VL): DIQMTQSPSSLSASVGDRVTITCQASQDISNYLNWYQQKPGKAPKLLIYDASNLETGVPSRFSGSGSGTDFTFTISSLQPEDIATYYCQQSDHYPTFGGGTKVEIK
Sequence of recombinant human OX40 (Acro Biosystems, cat. no. OXO-H5224) (human) (P43489 29-216 limits assumed): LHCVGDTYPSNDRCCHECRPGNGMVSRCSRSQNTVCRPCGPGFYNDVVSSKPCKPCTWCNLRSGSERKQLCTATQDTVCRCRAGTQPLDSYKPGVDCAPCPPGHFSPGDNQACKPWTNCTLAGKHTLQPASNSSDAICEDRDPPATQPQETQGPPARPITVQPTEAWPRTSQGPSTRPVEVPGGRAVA

Row | corrected association response [1] [nm] | corrected association response [2] [nm] | corrected association response [4] [nm] | corrected association response [7] [nm] | corrected association response [8] [nm] | corrected association response [9] [nm] | Kd [10] [nM] | EC50 (read off the curve) [11] [µg/mL] | corrected association response [12] [nm] | EC50 (read off the curve) [13] [µg/mL] | corrected association response [14] [nm] | corrected association response [15] [nm] | corrected association response [16] [nm] | corrected association response [17] [nm] | Kd [18] [nM] | EC50 (read off the curve) [19] [µg/mL] | corrected association response [20] [nm] | corrected association response [21] [nm] | corrected association response [22] [nm] | corrected association response [23] [nm] | Substance | further results
1 | 0.13 | 0.02 | 0.01 | 0.01 | 0.31 | 0.05 | 9.3 | 0.06 | 0.29 | 0.06 | 0.03 | -0.01 | 0 | 1.39 | 240 | 0.08 | 0.8 | -0.01 | 1.06 | 0.01 | IgG1-CD134-Hu106 (antibody) | EC50 (read off the curve) [3]: 0.06 µg/mL; EC50 (read off the curve) [5]: 0.05 µg/mL; EC50 (read off the curve) [6]: 0.06 µg/mL; koff [10]: 0.0024 s⁻¹; kon [10]: 260000 M⁻¹ s⁻¹; koff [18]: 0.029 s⁻¹; kon [18]: 120000 M⁻¹ s⁻¹; corrected association response [24]: 0.05 nm
2 | 0.15 | 0.31 | 0.01 | -0.03 | 0.26 | -0.02 | 53 | 0.08 | 0.24 | 0.08 | 0.07 | -0.02 | 0.02 | 1.23 | 400 | 0.09 | 0.82 | 0 | 0.74 | 0.01 | IgG1-CD134-IBI101 (antibody) | EC50 (read off the curve) [3]: 0.06 µg/mL; EC50 [25]: 1.86 µg/mL; EC50 [26]: 0.101 µg/mL; EC50 [27]: 0.727 µg/mL; EC50 [28]: 0.104 µg/mL; EC50 [29]: 0.192 µg/mL; EC50 [30]: 0.128 µg/mL; EC50 [31]: 0.1 µg/mL; corrected association response [24]: 0.02 nm; EC50 [32]: 0.111 µg/mL
3 | 0.11 | 0.01 | 0.01 | -0.02 | 0.01 | -0.01 | 160 | 0.08 | 0.25 | 0.1 | 0.02 | -0.03 | 0 | 1.74 | 230 | 0.06 | 0.73 | 0 | 1.39 | 0.01 | IgG1-CD134-INCAGN1949 (antibody) | EC50 (read off the curve) [5]: 0.07 µg/mL; EC50 (read off the curve) [6]: 0.08 µg/mL; corrected association response [24]: 0.55 nm
4 |  |  |  |  |  |  |  |  |  |  |  |  |  |  |  |  |  |  |  |  | IgG1-CD134-RG7888-K322A-E345R (antibody) | EC50 (read off the curve) [33]: 0.6 µg/mL; EC50 (read off the curve) [34]: 30 nM
